Fewer inactive variants are shown than the library holds.
B1: TPR 5TU (parent)
chain: GGAUCUUCUCGAUCUAACAAAAAAGACAAAUCUGCCACAAAGCUUGAGAGCAUCUUCGGAUGCAGAGGCGGCAGCCUUCGGUGGCGCGAUAGCGCCAACGUUCUCAACUAUGACACGCAAAACGCGUGCUCCGUUGAAUGGAGUUUAUCAUG

Variants of: B1
Assay: polymerase ribozyme fitness, log enrichment relative to wild type (log ratio); higher = more active; in vitro selection for triplet polymerase activity
Summary of the method: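 Libraries of mutants in each subunit of a heterodimeric triplet polymerase ribozyme were generated by PCR and transcribed. In triplicate, each went through one in vitro selection round: annealing with biotinylated primer, partner subunit and triplets; frozen incubation at −7 °C; gel excision of extended constructs; streptavidin-bead capture; RT-PCR. Fitness, taken from Illumina sequencing of input and output libraries, is the logarithm of a genotype's enrichment over wild-type enrichment, averaged across replicates with inverse-variance weights. The logarithm is base 2, and genotypes needed ≥10 input reads and ≥1 read per output to be kept.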

Row | Variant | polymerase ribozyme fitness (log ratio)
1 | A29U A142G C149U | ≤ -4.2
2 | A28U A66U A73G G86U C103G C116U G152U | ≤ -4.2
3 | A29U A66U C79A G83A C96A A142U | ≤ -4.2
4 | A28C A60G C69U G74A U135G A138U G141U | ≤ -4.2
5 | A28U A39G A66G C76A G81C | ≤ -4.2
6 | A29C G50C C114U | ≤ -4.2
7 | A29C A49G C87A A150G | ≤ -4.2
8 | A28U A49G C54A C93U U144C | ≤ -4.2
9 | A28U G50A C85G | ≤ -4.2
10 | A29C A41G A97C A122U | ≤ -4.2
11 | A28U C32G A41U A73G C85G G88U G136A | ≤ -4.2
12 | A29C G50U G81A C95A G133U | ≤ -4.2
13 | A28U A49C C103G | ≤ -4.2
14 | A28G G58U | ≤ -4.2
15 | A29C C35A | -3.91
16 | A28C G86U | ≤ -4.2
17 | A28G A52C U53C C57U C87A G141A | ≤ -4.2
18 | A29C A41G G59C G62C G100A G141C | ≤ -4.2
19 | A28C C36U A39U U55A A66U C79U A91U C93A | ≤ -4.2
20 | A29C C96G | -4.15
21 | A28C U151A | ≤ -4.2

Row | Variant | polymerase ribozyme fitness (log ratio)
22 | A28U A40C C75G C87A C95U C105G A121U | ≤ -4.2
23 | A28U A60C C87A C96U | ≤ -4.2
24 | A28U A29C U45A G58C C85U C105U A106G | ≤ -4.2
25 | C27U U55A U56A | -2.25
26 | A28U A30C C32A A47C G58C C85U A107U | ≤ -4.2
27 | A29U A49C C63U C116U G133C U139A U146A | ≤ -4.2
28 | A29C A39U C96A | ≤ -4.2
29 | A28U A49U U139G | ≤ -4.2
30 | A29G C51U C96G | ≤ -4.2
31 | A29C A52C U53A C54U C75G C129A | ≤ -4.2
32 | A28C A39U C103U C116G U139G | ≤ -4.2
33 | A28U G50A C132U | ≤ -4.2
34 | A28U A29G A30U U61A G80C C93A A113U G140U G141A | ≤ -4.2
35 | A28U G80A A91U | ≤ -4.2
36 | A29G U111A | ≤ -4.2
37 | A28U G83C G92U C96U | ≤ -4.2
38 | A28C U56A C57A G68A C76A G88U G94A A138C | ≤ -4.2
39 | A28G C32U G86C A115G U144G | ≤ -4.2
40 | A29U A97U A115U G124C U134C U148A | ≤ -4.2
41 | A28U G48U | ≤ -4.2
42 | A29G A49C G67A C114U U127G | ≤ -4.2

Row | Variant | polymerase ribozyme fitness (log ratio)
43 | A29G C76G C93U | ≤ -4.2
44 | A28C U61A G88A | ≤ -4.2
45 | A28G U31G C36A U56A C95A G141C | -3.69
46 | A29G C38U U53G C85G A98U C108A G128U | -3.97
47 | A28U G65U U82G U101G C103A G152U | ≤ -4.2
48 | A29U A52C | ≤ -4.2
49 | A28G G80A G141A | ≤ -4.2
50 | A28U A29U U61A G81A C93A | ≤ -4.2
51 | A28U A39C A98G G143U U144G U146G | ≤ -4.2
52 | A29G G48A C75U | ≤ -4.2
53 | A28C G42C C76G C79G G86C U90G A97G U145C | ≤ -4.2
54 | A28C C35U G124A G141U | ≤ -4.2
55 | A28U C54U C76A C114U | -3.97
56 | A28C U31G A41U G65A C85G G88U C96U C103U U135G | ≤ -4.2
57 | A29G A60C G80A A121U G141U | ≤ -4.2
58 | A29U C32U A122G | ≤ -4.2
59 | A28U G74A C85U A91U | ≤ -4.2
60 | A29C G92A G143C U146C | ≤ -4.2
61 | A28C G80C C87G | ≤ -4.2
62 | A29C C87G G117A | ≤ -4.2
63 | A28U A30U A39U G50C C57G C75G U82A G83C G124U | ≤ -4.2

Row | Variant | polymerase ribozyme fitness (log ratio)
64 | A28C G83C G128U | ≤ -4.2
65 | A28G G42U | ≤ -4.2
66 | C27U U55A G58C C87U U111C A142U | -4.19
67 | A29G C35G G84C G100A | ≤ -4.2
68 | A28U C96A | -3.93
69 | A28U C96U | -3.66
70 | A28U C54U | -3.76
71 | A29U A66U C96U | ≤ -4.2
72 | A28C G84A G94U C96G C108G U139C G143C | ≤ -4.2
73 | A28G G34A G83C C118G | ≤ -4.2
74 | A29G A37U A47U U55A G84U A89G A120C G140C U144G | ≤ -4.2
75 | A28G A52C U55C C63A C87U A91U | ≤ -4.2
76 | A28U A29U A37G A66U A73U U78G G84A | ≤ -4.2
77 | A28U C99A | -4.15
78 | A28G G94A | -3.42
79 | A28U G67U C103A | ≤ -4.2
80 | A29G U90G A122U A142U C149G | ≤ -4.2
81 | A28C C85A | ≤ -4.2
82 | A28G U56A G136C | ≤ -4.2
83 | A29U C32U G62A G67U C75G U82G A142U A150G | -3.64
84 | A29C G62U G80C C118A | ≤ -4.2
